Laboratory results: paper PMC10397247
Blank lines part the entries; values can stand above or below the binder they belong to.

What was measured:
Experiment in all cases: two-hybrid library CCNG1;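 further: natural log of median RNA to DNA barcode read ratio; higher means stronger binding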
[1] = molecular target: T1, 4H3112-bN
T1 chain: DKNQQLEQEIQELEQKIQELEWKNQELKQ

[2] = molecular target: T2, 4H687-bN
T2 chain: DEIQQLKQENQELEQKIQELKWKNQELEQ

[3] = molecular target: T3, 4H797-bN
T3 chain: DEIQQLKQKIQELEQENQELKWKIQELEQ

[4] = molecular target: T4, 4H908-bN
T4 chain: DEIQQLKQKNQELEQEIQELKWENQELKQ

[5] = molecular target: T5, 4H72-bN
T5 chain: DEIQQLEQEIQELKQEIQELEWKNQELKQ

[6] = molecular target: T6, 4H338-bN
T6 chain: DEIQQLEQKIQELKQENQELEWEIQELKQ

[7] = molecular target: T7, 4H3855-bN
T7 chain: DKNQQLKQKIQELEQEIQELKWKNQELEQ

[8] = molecular target: T8, 4H717-bN
T8 chain: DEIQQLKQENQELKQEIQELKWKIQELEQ

[9] = molecular target: T9, 4H949-bN
T9 chain: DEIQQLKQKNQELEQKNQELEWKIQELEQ

[10] = molecular target: T10, 4H967-bN
T10 chain: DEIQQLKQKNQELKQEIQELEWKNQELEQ

[11] = molecular target: T11, 4H2729-bN
T11 chain: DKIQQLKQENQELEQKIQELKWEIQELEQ

[12] = molecular target: T12, 4H4001-bN
T12 chain: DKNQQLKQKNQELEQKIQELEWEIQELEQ

[13] = molecular target: T13, 4H2697-bN
T13 chain: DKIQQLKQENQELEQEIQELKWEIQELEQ

[14] = molecular target: T14, 4H3782-bN
T14 chain: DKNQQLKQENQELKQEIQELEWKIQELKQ

[15] = molecular target: T15, 4H883-bN
T15 chain: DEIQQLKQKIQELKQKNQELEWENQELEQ

[16] = molecular target: T16, 4H3843-bN
T16 chain: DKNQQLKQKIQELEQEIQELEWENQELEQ

[17] = molecular target: T17, 4H2667-bN
T17 chain: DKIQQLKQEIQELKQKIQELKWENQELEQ

[18] = molecular target: T18, 4H2618-bN
T18 chain: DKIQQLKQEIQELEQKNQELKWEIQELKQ

[19] = molecular target: T19, 4H3189-bN
T19 chain: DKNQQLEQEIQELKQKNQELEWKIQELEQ

[20] = molecular target: T20, 4H454-bN
T20 chain: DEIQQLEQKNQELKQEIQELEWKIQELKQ

[21] = molecular target: T21, 4H754-bN
T21 chain: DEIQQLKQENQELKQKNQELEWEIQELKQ

[22] = molecular target: T22, 4H3354-bN
T22 chain: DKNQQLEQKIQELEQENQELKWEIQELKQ

[23] = molecular target: T23, 4H2610-bN
T23 chain: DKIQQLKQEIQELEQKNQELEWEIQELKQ

[24] = molecular target: T24, 4H953-bN
T24 chain: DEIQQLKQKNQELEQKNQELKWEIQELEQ

[25] = molecular target: T25, 4H918-bN
T25 chain: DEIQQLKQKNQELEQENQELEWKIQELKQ

[26] = molecular target: T26, 4H568-bN
T26 chain: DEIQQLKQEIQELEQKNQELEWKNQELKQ

[27] = molecular target: T27, 4H3606-bN
T27 chain: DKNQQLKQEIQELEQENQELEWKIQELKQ

[28] = molecular target: T28, 4H462-bN
T28 chain: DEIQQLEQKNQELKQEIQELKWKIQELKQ

[29] = molecular target: T29, 4H607-bN
T29 chain: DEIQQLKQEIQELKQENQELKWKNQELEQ

[30] = molecular target: T30, 4H3185-bN
T30 chain: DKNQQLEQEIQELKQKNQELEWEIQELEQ

[31] = molecular target: T31, 4H370-bN
T31 chain: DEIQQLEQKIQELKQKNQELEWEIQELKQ

[32] = molecular target: T32, 4H3427-bN
T32 chain: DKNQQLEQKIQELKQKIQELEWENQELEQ

[33] = molecular target: T33, 4H331-bN
T33 chain: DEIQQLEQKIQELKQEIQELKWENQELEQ

[34] = molecular target: T34, 4H2576-bN
T34 chain: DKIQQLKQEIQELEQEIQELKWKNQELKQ

[35] = molecular target: T35, 4H883-bA
T35 chain: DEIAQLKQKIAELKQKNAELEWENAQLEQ

[36] = molecular target: T36, 4H3462-bN
T36 chain: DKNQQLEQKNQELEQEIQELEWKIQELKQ

[37] = molecular target: T37, 4H1710-bN
T37 chain: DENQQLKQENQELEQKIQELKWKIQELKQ

[38] = molecular target: T38, 4H906-bN
T38 chain: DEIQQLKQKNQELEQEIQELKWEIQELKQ

[39] = molecular target: T39, 4H1985-bN
T39 chain: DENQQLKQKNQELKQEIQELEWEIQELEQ

[40] = molecular target: T40, 4H850-bN
T40 chain: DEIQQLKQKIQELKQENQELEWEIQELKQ

[41] = molecular target: T41, 4H3628-bN
T41 chain: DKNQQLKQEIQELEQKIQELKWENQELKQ

[42] = molecular target: T42, 4H3817-bN
T42 chain: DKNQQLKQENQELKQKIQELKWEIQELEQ

[43] = molecular target: T43, 4H3277-bN
T43 chain: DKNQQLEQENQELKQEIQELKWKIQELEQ

[44] = molecular target: T44, 4H3926-bN
T44 chain: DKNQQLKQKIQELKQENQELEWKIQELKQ

[45] = molecular target: T45, 4H570-bN
T45 chain: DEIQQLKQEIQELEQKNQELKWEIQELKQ

[46] = molecular target: T46, 4H3175-bN
T46 chain: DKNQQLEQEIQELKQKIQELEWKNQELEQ

[47] = molecular target: T47, 4H1899-bN
T47 chain: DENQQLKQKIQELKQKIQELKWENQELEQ

[48] = molecular target: T48, 4H1544-bN
T48 chain: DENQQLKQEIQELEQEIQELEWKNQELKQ

[49] = molecular target: T49, 4H591-bN
T49 chain: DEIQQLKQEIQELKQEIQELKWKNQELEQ

[50] = molecular target: T50, 4H3298-bN
T50 chain: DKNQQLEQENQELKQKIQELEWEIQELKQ

[51] = molecular target: T51, 4H3162-bN
T51 chain: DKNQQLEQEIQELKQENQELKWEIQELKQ

[52] = molecular target: T52, 4H3974-bN
T52 chain: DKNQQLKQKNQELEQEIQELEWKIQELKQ

[53] = molecular target: T53, 4H626-bN
T53 chain: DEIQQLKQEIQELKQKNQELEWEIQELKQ

[54] = molecular target: T54, 4H3613-bN
T54 chain: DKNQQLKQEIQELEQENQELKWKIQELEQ

[55] = molecular target: T55, 4H3497-bN
T55 chain: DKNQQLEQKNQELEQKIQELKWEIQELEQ

[56] = molecular target: T56, 4H3858-bN
T56 chain: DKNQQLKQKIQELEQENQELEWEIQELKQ

[57] = molecular target: T57, P7mS
T57 chain: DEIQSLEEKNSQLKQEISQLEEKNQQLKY

[58] = molecular target: T58, P9mS
T58 chain: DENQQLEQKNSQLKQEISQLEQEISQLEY

[59] = molecular target: T59, P6mS
T59 chain: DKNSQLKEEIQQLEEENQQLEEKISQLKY

[60] = molecular target: T60, P8mS
T60 chain: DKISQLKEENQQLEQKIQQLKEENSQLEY

interaction score [2]: -1.82 | interaction score [3]: -1.16 | interaction score [5]: -1.85 | interaction score [10]: -0.795 | interaction score [12]: -0.736 | interaction score [13]: -0.363 | interaction score [14]: -1.11 | interaction score [15]: -0.137 | interaction score [16]: 0.0276 | interaction score [17]: 0.011 | interaction score [19]: -0.821 | interaction score [23]: 0.245 | interaction score [24]: -0.363 | interaction score [25]: -0.666 | interaction score [35]: 0.288 | interaction score [26]: -0.762 | interaction score [27]: -1.38 | interaction score [28]: 1.63 | interaction score [29]: -0.966 | interaction score [31]: -2.72 | interaction score [33]: 0.616
Binder: DKIQQLKQEIQELEQKNQELEWEIQELKQ [4H2610-bN]

interaction score [57]: -2.21 | interaction score [58]: -0.654 | interaction score [59]: -0.275 | interaction score [60]: -0.784
Binder: DKNSQLKEEIQQLEEENQQLEEKISQLKY [P6mS]

Continued, binder first:

Binder: DKIQQLKQEIQELEQEIQELKWKNQELKQ [4H2576-bN]
interaction score [1]: -0.405 | interaction score [2]: -0.515 | interaction score [3]: -2.07 | interaction score [4]: -0.577 | interaction score [5]: 1.58 | interaction score [6]: 0.787 | interaction score [7]: 1.04 | interaction score [8]: -0.909 | interaction score [9]: 0.288 | interaction score [10]: -1.08 | interaction score [11]: 1.74 | interaction score [12]: 0.0889 | interaction score [13]: -0.235 | interaction score [14]: -0.233 | interaction score [15]: 1.47 | interaction score [16]: -0.264 | interaction score [17]: 1.21 | interaction score [18]: 0.876 | interaction score [19]: 0.118 | interaction score [20]: -0.887 | interaction score [21]: 0.456 | interaction score [22]: -1.26 | interaction score [23]: -0.395 | interaction score [24]: -1.09 | interaction score [25]: -1.21 | interaction score [26]: -0.0699 | interaction score [27]: -0.101 | interaction score [28]: 0.0924 | interaction score [29]: -0.239 | interaction score [30]: 0.148 | interaction score [31]: 0.65 | interaction score [32]: -2.5 | interaction score [33]: 1.55 | interaction score [34]: 1.12

Binder: DENQQLKQEIQELEQEIQELEWKNQELKQ [4H1544-bN]
interaction score [36]: 1.08 | interaction score [37]: 1.41 | interaction score [38]: -0.343 | interaction score [39]: -0.277 | interaction score [40]: 0.669 | interaction score [41]: 0.019 | interaction score [42]: -0.351 | interaction score [43]: -0.11 | interaction score [44]: -0.652 | interaction score [45]: -0.108 | interaction score [46]: 0.167 | interaction score [47]: 1.82 | interaction score [48]: -2.02 | interaction score [49]: -0.583 | interaction score [50]: -0.192 | interaction score [51]: -1.96 | interaction score [52]: -0.0151 | interaction score [25]: -0.127 | interaction score [53]: -1.03 | interaction score [54]: -1.07 | interaction score [55]: 0.211 | interaction score [56]: -0.293
